First the molecules themselves.
B1: ADVa012 (ssDNA)
DNA: AGCAGCACAGAGGTCAGATGAGCTAGTGCCTATGCGTGCTACCGTGAATAGCGTCAGCAGCCTATGCGTGCTACCGTGAA
B2: ADVa001 (ssDNA)
DNA: AGCAGCACAGAGGTCAGATGGTGTGTGTGTGTGTGTGTGTGCCTATGCGTGCTACCGTGACCTATGCGTGCTACCGTGAA
B3: ADVa014 (ssDNA)
DNA: AGCAGCACAGAGGTCAGATGTGTTGTCCCGGGGCCCTATGCGTGCTACCGTGAATAGCGTCCTATGCGTGCTACCGTGAA
B4: ADVa011 (ssDNA)
DNA: AGCAGCACAGAGGTCAGATGGGGTTGTCGGTGTTTGCGGGCCTATGCGTGCTACCGTGAACCTATGCGTGCTACCGTGAA

The values below come from paper PMC7907208, “Aptamer-targeting of Aleutian mink disease virus (AMDV) can be an effective strategy to inhibit virus replication”.

In general, Kd refers to a measure of binding affinity in units of concentration.

For this data set, the target named is AMDV VP2 (Aleutian mink disease virus, UniProt A0A168PAM8 200-588). The data set can be described thus: ELONA. To be noted: protein: recombinant; tags: His.
In the case of B1, the Kd turned out to be 930 ± 285 nM.
Consider B2, for which the Kd turned out to be 566 ± 127 nM.
Consider B3, for which the Kd was 247 ± 62.5 nM.
The result for B4 reads 2090 ± 754 nM.
